# Assay results as given in IntAct's records for PubMed 24316379.
# B1: Interleukin-1 receptor-associated kinase 4 (Homo sapiens), Q9NWZ3 (parent)
# chain: MNKPITPSTYVRCLNVGLIRKLSDFIDPQEGWKKLAVAIKKPSGDDRYNQFHIRRFEALLQTGKSPTSELLFDWGTTNCTVGDLVDLLIQNEFFAPASLLLPDAVPKTANTLPSKEAITVQQKQMPFCDKDRTLMTPVQNLEQSYMPPDSSSPENKSLEVSDTRFHSFSFYELKNVTNNFDERPISVGGNKMGEGGFGVVYKGYVNNTTVAVKKLAAMVDITTEELKQQFDQEIKVMAKCQHENLVELLGFSSDGDDLCLVYVYMPNGSLLDRLSCLDGTPPLSWHMRCKIAQGAANGINFLHENHHIHRDIKSANILLDEAFTAKISDFGLARASEKFAQTVMTSRIVGTTAYMAPEALRGEITPKSDIYSFGVVLLEIITGLPAVDEHREPQLLLDIKEEIEDEEKTIEDYIDKKMNDADSTSVEAMYSVASQCLHEKKNKRPDIKKVQQLLQEMTAS
# Variants of: B1
# Settings: with MYD88, Q99836-1
# Chain of MYD88, Q99836-1 (Q99836 whole entry): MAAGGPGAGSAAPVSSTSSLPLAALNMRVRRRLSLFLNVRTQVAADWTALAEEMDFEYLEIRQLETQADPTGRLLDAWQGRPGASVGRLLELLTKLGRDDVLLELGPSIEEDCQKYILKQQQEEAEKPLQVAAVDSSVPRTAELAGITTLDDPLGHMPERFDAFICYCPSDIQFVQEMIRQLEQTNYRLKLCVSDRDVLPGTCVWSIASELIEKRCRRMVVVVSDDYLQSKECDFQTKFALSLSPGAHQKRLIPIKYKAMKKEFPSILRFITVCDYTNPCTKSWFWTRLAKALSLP
row,effect of a mutation on the interaction,Variant
1,decreasing interaction strength,MNKPITPSTYVRCLNVGLIWKLSDFIDPQEGWKKLAVAIKKPSGDDRYNQFHIRRFEALLQTGKSPTSELLFDWGTTNCTVGDLVDLLIQNEFFAPASLLLPDAVPKTANTLPSKEAITVQQKQMPFCDKDRTLMTPVQNLEQSYMPPDSSSPENKSLEVSDTRFHSFSFYELKNVTNNFDERPISVGGNKMGEGGFGVVYKGYVNNTTVAVKKLAAMVDITTEELKQQFDQEIKVMAKCQHENLVELLGFSSDGDDLCLVYVYMPNGSLLDRLSCLDGTPPLSWHMRCKIAQGAANGINFLHENHHIHRDIKSANILLDEAFTAKISDFGLARASEKFAQTVMTSRIVGTTAYMAPEALRGEITPKSDIYSFGVVLLEIITGLPAVDEHREPQLLLDIKEEIEDEEKTIEDYIDKKMNDADSTSVEAMYSVASQCLHEKKNKRPDIKKVQQLLQEMTAS [R20W]
2,decreasing interaction strength,MNKPITPSTYVCCLNVGLIRKLSDFIDPQEGWKKLAVAIKKPSGDDRYNQFHIRRFEALLQTGKSPTSELLFDWGTTNCTVGDLVDLLIQNEFFAPASLLLPDAVPKTANTLPSKEAITVQQKQMPFCDKDRTLMTPVQNLEQSYMPPDSSSPENKSLEVSDTRFHSFSFYELKNVTNNFDERPISVGGNKMGEGGFGVVYKGYVNNTTVAVKKLAAMVDITTEELKQQFDQEIKVMAKCQHENLVELLGFSSDGDDLCLVYVYMPNGSLLDRLSCLDGTPPLSWHMRCKIAQGAANGINFLHENHHIHRDIKSANILLDEAFTAKISDFGLARASEKFAQTVMTSRIVGTTAYMAPEALRGEITPKSDIYSFGVVLLEIITGLPAVDEHREPQLLLDIKEEIEDEEKTIEDYIDKKMNDADSTSVEAMYSVASQCLHEKKNKRPDIKKVQQLLQEMTAS [R12C]

# Variants of: B1
# Settings: with MYD88, Q99836-1
# Remark: another data set of the same source
row,effect of a mutation on the interaction,Variant
1,disrupting interaction strength,MNKPITPSTYVCCLNVGLIRKLSDFIDPQEGWKKLAVAIKKPSGDDRYNQFHIRRFEALLQTGKSPTSELLFDWGTTNCTVGDLVDLLIQNEFFAPASLLLPDAVPKTANTLPSKEAITVQQKQMPFCDKDRTLMTPVQNLEQSYMPPDSSSPENKSLEVSDTRFHSFSFYELKNVTNNFDERPISVGGNKMGEGGFGVVYKGYVNNTTVAVKKLAAMVDITTEELKQQFDQEIKVMAKCQHENLVELLGFSSDGDDLCLVYVYMPNGSLLDRLSCLDGTPPLSWHMRCKIAQGAANGINFLHENHHIHRDIKSANILLDEAFTAKISDFGLARASEKFAQTVMTSRIVGTTAYMAPEALRGEITPKSDIYSFGVVLLEIITGLPAVDEHREPQLLLDIKEEIEDEEKTIEDYIDKKMNDADSTSVEAMYSVASQCLHEKKNKRPDIKKVQQLLQEMTAS [R12C]
